Laboratory results as given in paper PMC11157650.

B1: Recombinant anti-StrepTag IgM protomer (two mu heavy chains and two kappa light chains) (antibody, V domains shown)
VH: EVQLEQSGPELVKPGASVKMSCKASGYTFTNYYMKWVKQSHGKSLEWIGDLNPNNGDTFYNQKFKGKATLTVDKSSNTAYMQLNSLTSEDSAVYYCARTGRYEENAMDYWGQGTSVTVSS
VL: ELVMTQSPASLAVSLGQRATISCRASESVDSYGKSFMHWYQLKPGQPPKLLIYRASNLESGVPARFSGSGSRTDFTLTIDPVEADDAATYYCQQNNEDPWTFGGGTKLEIK

What was measured:
[1] = target: Fc part of the IgM protomer left after IgMBRAZOR cleavage (two mu chain fragments from Ala344 to the C-terminus) (human); assay: SEC + native MS; online SEC-Orbitrap-based CDMS of IgM co-expressed with the J-chain, undigested or digested with IgMBRAZOR; sample in PBS, 0.5 μg injected; mobile phase 100 mM ammonium acetate pH 6.8; the oligomer is held by disulfide bonds
[2] = target: Recombinant anti-StrepTag IgM protomer (two mu heavy chains and two kappa light chains); assay: as above

Row | Molecule | stoichiometry N [1] | stoichiometry N [2]
1 | Fc part of the IgM protomer left after IgMBRAZOR cleavage (two mu chain fragments from Ala344 to the C-terminus) (domain or fragment) | 5 | 
2 | B1 |  | 5
